The chains are these.
B1: POLA2(1-334)-FG3 (domain or fragment)
chain: MSASAQQLAEELQIFGLDCEEALIEKLVELCVQYGQNEEGMVGELIAFCTSTHKVGLTSEILNSFEHEFLSKRLSKARHSTCKDSGHAGARDIVSIQELIEVEEEEEILLNSYTTPSKGSQKRAISTPETPLTKRSVSTRSPHQLLSPSSFSPSATPSQKYNSRSNRGEVVTSFGLAQGVSWSGRGGAGNISLKVLGCPEALTGSYKSMFQKLPDIREVLTCKIEELGSELKEHYKIEAFTPLLAPAQEPVTLLGQIGCDSNGKLNNKSVILEGDREHSSGAQIPVDLSELKEYSLFPGQVVIMEGINTTGRKLVATKLYEGVPLPFYQPTEED
B3: full length STN1-Strep (STN1F-Strep) (natural protein)
chain: MQPGSSRCEEETPSLLWGLDPVFLAFAKLYIRDILDMKESRQVPGVFLYNGHPIKQVDVLGTVIGVRERDAFYSYGVDDSTGVINCICWKKLNTESVSAAPSAARELSLTSQLKKLQETIEQKTKIEIGDTIRVRGSIRTYREEREIHATTYYKVDDPVWNIQIARMLELPTIYRKVYDQPFHSSALEKEEALSNPGALDLPSLTSLLSEKAKEFLMENRVQSFYQQELEMVESLLSLANQPVIHSASSDQVNFKKDTTSKAIHSIFKNAIQLLQEKGLVFQKDDGFDNLYYVTREDKDLHRKIHRIIQQDCQKPNHMEKGCHFLHILACARLSIRPGLSEAVLQQVLELLEDQSDIVSTMEHYYTAF
B6: STN1N-Strep (domain or fragment)
chain: MQPGSSRCEEETPSLLWGLDPVFLAFAKLYIRDILDMKESRQVPGVFLYNGHPIKQVDVLGTVIGVRERDAFYSYGVDDSTGVINCICWKKLNTESVSAAPSAARELSLTSQLKKLQETIEQKTKIEIGDTIRVRGSIRTYREEREIHATTYYKVDDPVWNIQIARMLELPTIYRKVYDQPFHSSALEKE

Assay [1] has as its target B3. Description: pull-down.
Assay [2] concerns the target B6. Description: pull-down.
Assay [3] concerns the target T1, POLA2(1-414)-FG3 (human, UniProt Q14181 1-414).
T1 sequence: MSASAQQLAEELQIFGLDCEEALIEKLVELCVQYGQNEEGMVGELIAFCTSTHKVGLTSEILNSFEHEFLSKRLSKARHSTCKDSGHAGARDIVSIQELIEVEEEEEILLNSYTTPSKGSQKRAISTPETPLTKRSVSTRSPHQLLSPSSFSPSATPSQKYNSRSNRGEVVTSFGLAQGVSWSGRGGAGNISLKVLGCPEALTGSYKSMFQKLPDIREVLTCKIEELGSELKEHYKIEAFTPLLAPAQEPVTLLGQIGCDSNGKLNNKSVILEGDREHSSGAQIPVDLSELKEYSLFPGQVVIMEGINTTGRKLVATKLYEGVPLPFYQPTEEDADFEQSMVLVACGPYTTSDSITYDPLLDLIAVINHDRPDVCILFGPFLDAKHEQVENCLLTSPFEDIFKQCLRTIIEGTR
Description: pull-down.

In assay [4] the target is T2, POLA2-FLAG (human, UniProt Q14181 1-598).
T2 sequence: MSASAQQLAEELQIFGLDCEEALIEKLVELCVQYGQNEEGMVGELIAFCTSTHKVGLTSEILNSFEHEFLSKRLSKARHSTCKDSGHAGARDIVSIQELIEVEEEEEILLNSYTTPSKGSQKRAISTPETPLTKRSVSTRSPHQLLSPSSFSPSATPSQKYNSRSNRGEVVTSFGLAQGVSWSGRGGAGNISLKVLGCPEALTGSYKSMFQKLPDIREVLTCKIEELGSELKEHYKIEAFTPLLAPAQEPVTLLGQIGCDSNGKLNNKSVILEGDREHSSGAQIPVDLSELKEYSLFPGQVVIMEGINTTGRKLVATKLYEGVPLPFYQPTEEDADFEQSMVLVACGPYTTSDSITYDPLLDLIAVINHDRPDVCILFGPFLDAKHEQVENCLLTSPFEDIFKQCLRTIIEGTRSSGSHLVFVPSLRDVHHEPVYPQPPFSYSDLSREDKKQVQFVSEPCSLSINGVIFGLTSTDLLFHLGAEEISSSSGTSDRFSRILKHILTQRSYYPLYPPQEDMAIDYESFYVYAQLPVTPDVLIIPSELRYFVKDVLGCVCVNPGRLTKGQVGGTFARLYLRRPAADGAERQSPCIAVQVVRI
Nature of the assay: cell-based or functional assay.

In assay [5] the target is B1. Nature of the assay: pull-down.

For the molecule B1, in assay [1], the binding result is “binds”.

B2: POLA2OB-FG3 (domain or fragment)
chain: GSYKSMFQKLPDIREVLTCKIEELGSELKEHYKIEAFTPLLAPAQEPVTLLGQIGCDSNGKLNNKSVILEGDREHSSGAQIPVDLSELKEYSLFPGQVVIMEGINTTGRKLVATKLYEGVPLPFYQPTEED
Take B2: in assay [2], the binding result is given as “binds”. On to B3, for which, in assay [3], the binding result was “binds”.

B4: STN1N-Strep R135T (domain or fragment)
chain: MQPGSSRCEEETPSLLWGLDPVFLAFAKLYIRDILDMKESRQVPGVFLYNGHPIKQVDVLGTVIGVRERDAFYSYGVDDSTGVINCICWKKLNTESVSAAPSAARELSLTSQLKKLQETIEQKTKIEIGDTIRVTGSIRTYREEREIHATTYYKVDDPVWNIQIARMLELPTIYRKVYDQPFHSSALEKE
In the case of B4, the “PP stimulatory activity against wild-type STN1N (1.5 uM, poly-dT template)” value in assay [4] was found to be 2 fold.

B5: STN1N-Strep D157Y (domain or fragment)
chain: MQPGSSRCEEETPSLLWGLDPVFLAFAKLYIRDILDMKESRQVPGVFLYNGHPIKQVDVLGTVIGVRERDAFYSYGVDDSTGVINCICWKKLNTESVSAAPSAARELSLTSQLKKLQETIEQKTKIEIGDTIRVRGSIRTYREEREIHATTYYKVDYPVWNIQIARMLELPTIYRKVYDQPFHSSALEKE
Turning to B5, the binding result in assay [3] is listed as “binds”. As for B6, the binding result in assay [3] and in assay [5] was “binds” each time.

B7: STN1N-Strep OBM-2 (W89A/R139A/Y141A) (domain or fragment)
chain: MQPGSSRCEEETPSLLWGLDPVFLAFAKLYIRDILDMKESRQVPGVFLYNGHPIKQVDVLGTVIGVRERDAFYSYGVDDSTGVINCICAKKLNTESVSAAPSAARELSLTSQLKKLQETIEQKTKIEIGDTIRVRGSIATAREEREIHATTYYKVDDPVWNIQIARMLELPTIYRKVYDQPFHSSALEKE
Regarding B7, the binding result in assay [3] is “binds”.

B8: STN1N-Strep R135W (domain or fragment)
chain: MQPGSSRCEEETPSLLWGLDPVFLAFAKLYIRDILDMKESRQVPGVFLYNGHPIKQVDVLGTVIGVRERDAFYSYGVDDSTGVINCICWKKLNTESVSAAPSAARELSLTSQLKKLQETIEQKTKIEIGDTIRVWGSIRTYREEREIHATTYYKVDDPVWNIQIARMLELPTIYRKVYDQPFHSSALEKE
Turning to B8, the binding result in assay [3] is “binds”.

The values above are taken from publication PMC5766158 (Nucleic Acids Research, 2017).
